Laboratory results as given in patent publication US20120058906A1 (published 2012).
Each block holds one binder with its values, some of them ahead of it.

What was measured:
[1] = target: T1, rHuman ErbB2/Fc Chimera, CF (R&D Systems Cat#1129-ER) (human, UniProt P04626 23-652); assay: ECL (MSD Multi-Spot) titration, antigen spotted on plate; Fab 15 nM; blank spot 536;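 note: blank spot per well as comparator with Hit at signal to blank ratio of 4 or more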
T1 construct: Bought Fc chimera; also called HER2/neu; human epidermal growth factor 2 receptor; Fc part of the bought chimera not given

[2] = target: T2, Recombinant Human DLL4 (R&D Systems Cat#1506-D4/CF) (human, UniProt Q9NR61 27-524); assay: as above
T2 construct: Bought recombinant protein; also called delta-like protein 4

[3] = target: T3, rHuman IGF-1 sR (IGF-1 sR), CF (R&D Systems Cat#391-GR) (human, UniProt P08069 31-932); assay: as above
T3 construct: Bought soluble receptor; also called insulin-like growth factor-1 soluble receptor; IGF-R1

[4] = target: T4, rHuman CD44/Fc Chimera, CF (R&D Systems Cat#3660-CD) (human, UniProt P16070 21-220); assay: as above
T4 construct: Bought Fc chimera; Fc part of the bought chimera not given

[5] = target: T1, rHuman ErbB2/Fc Chimera, CF (R&D …); assay: ECL (MSD Multi-Spot) titration, antigen spotted on plate; Fab 3.75 nM; blank spot 191;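 note: blank spot per well as comparator with Hit at signal to blank ratio of 4 or more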
[6] = target: T2, Recombinant Human DLL4 (R&D Systems …); assay: as above
[7] = target: T3, rHuman IGF-1 sR (IGF-1 sR), CF (R&D …); assay: as above
[8] = target: T4, rHuman CD44/Fc Chimera, CF (R&D Systems …); assay: as above
[9] = target: T1, rHuman ErbB2/Fc Chimera, CF (R&D …); assay: ECL (MSD Multi-Spot) titration, antigen spotted on plate; Fab 0.9375 nM; blank spot 153;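 note: blank spot per well as comparator with Hit at signal to blank ratio of 4 or more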
[10] = target: T2, Recombinant Human DLL4 (R&D Systems …); assay: as above
[11] = target: T3, rHuman IGF-1 sR (IGF-1 sR), CF (R&D …); assay: as above
[12] = target: T4, rHuman CD44/Fc Chimera, CF (R&D Systems …); assay: as above
[13] = target: T1, rHuman ErbB2/Fc Chimera, CF (R&D …); assay: ECL (MSD Multi-Spot) titration, antigen spotted on plate; Fab 60 nM; blank spot 1433;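 note: blank spot per well as comparator with Hit at signal to blank ratio of 4 or more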
[14] = target: T2, Recombinant Human DLL4 (R&D Systems …); assay: as above
[15] = target: T3, rHuman IGF-1 sR (IGF-1 sR), CF (R&D …); assay: as above
[16] = target: T4, rHuman CD44/Fc Chimera, CF (R&D Systems …); assay: as above
[17] = target: T3, rHuman IGF-1 sR (IGF-1 sR), CF (R&D …); assay: ECL (MSD Multi-Spot) titration, antigen spotted on plate; Fab 0.0192 µM; blank spot 751
[18] = target: T3, rHuman IGF-1 sR (IGF-1 sR), CF (R&D …); assay: ECL (MSD Multi-Spot) titration, antigen spotted on plate; Fab 0.096 µM; blank spot 917
[19] = target: T3, rHuman IGF-1 sR (IGF-1 sR), CF (R&D …); assay: ECL (MSD Multi-Spot) titration, antigen spotted on plate; Fab 0.48 µM; blank spot 2945
[20] = target: T1, rHuman ErbB2/Fc Chimera, CF (R&D …); assay: ECL (MSD Multi-Spot) titration, antigen spotted on plate; Fab 0.03188 µM; blank spot 536;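 note: blank spot per well as comparator with Hit at signal to blank ratio of 4 or more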
[21] = target: T2, Recombinant Human DLL4 (R&D Systems …); assay: as above
[22] = target: T5, rHuman HGF R/c-MET/Fc Chimera, CF (R&D Systems Cat#358-MT/CF) (human, UniProt P08581 25-932); assay: as above
T5 construct: Bought Fc chimera; also called HGF R/Fc; hepatocyte growth factor receptor; Fc part of the bought chimera not given

[23] = target: T3, rHuman IGF-1 sR (IGF-1 sR), CF (R&D …); assay: as above
[24] = target: T4, rHuman CD44/Fc Chimera, CF (R&D Systems …); assay: as above
[25] = target: T1, rHuman ErbB2/Fc Chimera, CF (R&D …); assay: ECL (MSD Multi-Spot) titration, antigen spotted on plate; Fab 0.51 µM; blank spot 1096;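 note: blank spot per well as comparator with Hit at signal to blank ratio of 4 or more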
[26] = target: T2, Recombinant Human DLL4 (R&D Systems …); assay: as above
[27] = target: T5, rHuman HGF R/c-MET/Fc Chimera, CF (R&D …); assay: as above
[28] = target: T3, rHuman IGF-1 sR (IGF-1 sR), CF (R&D …); assay: as above
[29] = target: T4, rHuman CD44/Fc Chimera, CF (R&D Systems …); assay: as above
[30] = target: T1, rHuman ErbB2/Fc Chimera, CF (R&D …); assay: ECL (MSD Multi-Spot) titration, antigen spotted on plate; Fab 0.00797 µM; blank spot 364;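 note: blank spot per well as comparator with Hit at signal to blank ratio of 4 or more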
[31] = target: T2, Recombinant Human DLL4 (R&D Systems …); assay: as above
[32] = target: T5, rHuman HGF R/c-MET/Fc Chimera, CF (R&D …); assay: as above
[33] = target: T3, rHuman IGF-1 sR (IGF-1 sR), CF (R&D …); assay: as above
[34] = target: T4, rHuman CD44/Fc Chimera, CF (R&D Systems …); assay: as above
[35] = target: T1, rHuman ErbB2/Fc Chimera, CF (R&D …); assay: ECL (MSD Multi-Spot) titration, antigen spotted on plate; Fab 0.1275 µM; blank spot 530;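 note: blank spot per well as comparator with Hit at signal to blank ratio of 4 or more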
[36] = target: T2, Recombinant Human DLL4 (R&D Systems …); assay: as above
[37] = target: T5, rHuman HGF R/c-MET/Fc Chimera, CF (R&D …); assay: as above
[38] = target: T3, rHuman IGF-1 sR (IGF-1 sR), CF (R&D …); assay: as above
[39] = target: T4, rHuman CD44/Fc Chimera, CF (R&D Systems …); assay: as above

ECL signal [1]: 740
ECL signal [2]: 7730
ECL signal [3]: 859
ECL signal [4]: 748
ECL signal [5]: 291
ECL signal [6]: 1570
ECL signal [7]: 314
ECL signal [8]: 307
ECL signal [9]: 268
ECL signal [10]: 453
ECL signal [11]: 204
ECL signal [12]: 251
ECL signal [13]: 2160
ECL signal [14]: 17300
ECL signal [15]: 2670
ECL signal [16]: 2360
B1: Fab VH1-3_IGHD4-23*01_IGHJ4*01 & L12_IGKJ1*01 (Fab, V domains shown)
VH: QVQLVQSGAEVKKPGASVKVSCKASGYTFTSYAMHWVRQAPGQRLEWMGWSNAGNGNTKYSQEFQGRVTITRDTSASTAYMELSSLRSEDMAVYYCARDDYGGNSDYFDYWGQGTLVTVSS
VL: not shown

ECL signal [17]: 1830
ECL signal [18]: 2450
ECL signal [19]: 8930
B2: Fab VH1-46_IGHD6-13*01_IGHJ4*01 & A27_IGKJ1*01 (Fab, V domains shown)
VH: QVQLVQSGAEVKKPGASVKVSCKASGYTFTSYYMHWVRQAPGQGLEWMGIINPSGGSTSYAQKFQGRVTMTRDTSTSTVYMELSSLRSEDTAVYYCAREGYSSSWYDYFDYWGQGTLVTVSS
VL: not shown
notes: Made as a Fab in E. coli: VH joined to the CH1 of Plasmid A (Flag and His tags), VL joined to the kappa constant region of Plasmid C

ECL signal [20]: 584
ECL signal [21]: 1280
ECL signal [22]: 693
ECL signal [23]: 765
ECL signal [24]: 653
ECL signal [25]: 1530
ECL signal [26]: 5180
ECL signal [27]: 1990
ECL signal [28]: 2240
ECL signal [29]: 2010
ECL signal [30]: 493
ECL signal [31]: 872
ECL signal [32]: 419
ECL signal [33]: 564
ECL signal [34]: 490
ECL signal [35]: 857
ECL signal [36]: 2380
ECL signal [37]: 853
ECL signal [38]: 1040
ECL signal [39]: 926
B3: Fab VH4-34_IGHD7-27*01_IGHJ4*01 & L5_IGKJ1*01 (Fab, V domains shown)
VH: QVQLQQWGAGLLKPSETLSLTCAVYGGSFSGYYWSWIRQPPGKGLEWIGEINHSGSTNYNPSLKSRVTISVDTSKNQFSLKLSSVTAADTAVYYCARANWGDYFDYWGQGTLVTVSS
VL: DIQMTQSPSSVSASVGDRVTITCRASQGISSWLAWYQQKPGKAPKLLIYAASSLQSGVPSRFSGSGSGTDFTLTISSLQPEDFATYYCQQANSFPPWTFGQGTKVEIKR
notes: as for B2
